The source of these data is PMC6927069.

The target in the test is latent myostatin. Description: BLI. The note with it: second pH 7.4.

Turning to SRK-015, the “dissociation rate (koff), fold lower at pH 7.4 than at pH 5.0” value is “approximately 20-fold”.
